Values of other authors, collected in paper PMC10531186.

Target: uPA (Mus musculus) (UniProt P06869)
Sequence of UniProt P06869 (P06869 21-433): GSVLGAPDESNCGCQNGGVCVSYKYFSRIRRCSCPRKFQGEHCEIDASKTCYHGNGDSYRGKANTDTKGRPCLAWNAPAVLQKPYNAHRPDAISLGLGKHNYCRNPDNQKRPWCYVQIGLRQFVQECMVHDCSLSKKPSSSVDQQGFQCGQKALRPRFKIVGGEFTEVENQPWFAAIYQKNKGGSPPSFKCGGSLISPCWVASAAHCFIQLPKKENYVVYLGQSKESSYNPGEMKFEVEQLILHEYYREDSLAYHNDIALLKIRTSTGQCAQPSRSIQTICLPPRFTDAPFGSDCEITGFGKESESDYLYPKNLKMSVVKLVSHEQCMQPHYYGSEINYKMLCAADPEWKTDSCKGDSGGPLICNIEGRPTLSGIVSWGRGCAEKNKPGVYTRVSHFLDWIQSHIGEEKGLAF

## mupain-1
  Ki: 185 nM
